How the values were obtained:
[1] = target: L. lactis single-stranded binding protein (LlSSB) (L. lactis) (UniProt Q9CDM9); assay: cell-based or functional assay
[2] = target: PaSSB (Pseudomonas aeruginosa single-stranded binding protein) (Pseudomonas aeruginosa) (UniProt P40947); assay: cell-based or functional assay
[3] = target: E. coli single-stranded binding protein (EcSSB) (E. coli) (UniProt P0AGE0); assay: cell-based or functional assay; conditions: scale: fold improved over the RecT protein alone
[4] = target: EcSSBΔ9 (EcSSB with a 9-amino-acid C-terminal deletion) (E. coli) (UniProt P0AGE0); assay: cell-based or functional assay
[5] = target: LlSSB C7:EcSSB (L. lactis SSB with its last 7 C-terminal residues replaced by those of EcSSB) (L. lactis) (UniProt Q9CDM9); assay: cell-based or functional assay
[6] = target: LlSSB C8:EcSSB (L. lactis SSB with its last 8 C-terminal residues replaced by those of EcSSB) (L. lactis) (UniProt Q9CDM9); assay: cell-based or functional assay
E. coli [7] = assay: Fifteen cycles of MAGE with pool of 15 oligos, editing efficiency by NGS; type: cell-based, Escherichia coli; conditions: 15 separate mutations, one week
Experimental: E. coli populations expressing either an efficient SSAP (SEQ ID NO: 157), an efficient SSAP/SSB pair (SEQ ID NO: 157/SEQ ID NO: 384), or the widely-used Redβ were taken through fifteen cycles of MAGE and transformed each cycle with a 10 μM pool comprising 15 unique oligos. Editing efficiency at each targeted locus was measured by NGS and averaged (FIG. 3).

E. coli [8] = assay: Editing efficiency by NGS, non-coding mismatch at a non-essential gene; type: cell-based, Escherichia coli; conditions: versus Redβ expressed off wild-type codons
Experimental: Top-performing SSAPs and SSAP/SSB pairs from experiments in E. coli, L. lactis, and M. smegmatis are shown in FIG. 2A, FIG. 2B and FIG. 2C, respectively. Bars in red are the proteins that had previously been reported in the literature. The proteins listed were found after ten rounds of selection for protein variants that enabled the introduction of an oligonucleotide that conferred a genomic edit that provided antibiotic resistance. Unbiased editing efficiency was tested in each case by introducing a non-coding base change at a non-essential gene and measuring the frequency of incorporation via next generation sequencing.
Their recombineering efficiency was tested against Redβ expressed off of its wild-type codons on the same plasmid system used for the SEER selections. […]
The efficiency of each SSAP or SSAP/SSB pair was measured by expressing them off of their host-specific plasmid in the naïve parent strain and running a recombineering cycle with an oligo that confers a 4-nucleotide non-coding mismatch in a non-essential gene. The allele was then amplified by PCR and editing efficiency was measured by next-generation sequencing.
To measure single locus editing, a recombineering cycle was run with an oligo that confers a single base pair non-coding mismatch in a non-essential gene. The allele was then amplified by PCR and editing efficiency was measured by NGS as described above. […]

[9] = tested on: Agrobacterium tumefaciens; assay: SSAP candidate enrichment; type: cell-based
Experimental: The editing efficiency of SSAP candidates was also tested in Agrobacterium tumefaciens and in Staphylococcus aureus using the methods described above.

MspRecT
genome editing efficiency in L. lactis (fold lower than the cognate pair) [1]: 33

PapRecT
genome editing efficiency in L. lactis (fold less than the cognate pair) [1]: 135
editing efficiency in L. lactis, pair against the RecT protein alone ([2]; scale: fold improved over the RecT protein alone): 1170

Redβ single-stranded annealing protein (SSAP) from Enterobacteria phage λ (from UniProt P03698 1-261)
editing efficiency in L. lactis, pair against the RecT protein alone [3]: 483
genome editing efficiency in L. lactis (fold lower than Redβ with EcSSB) [4]: 44
genome editing efficiency in L. lactis (fold less than Redβ with EcSSB) [1]: 38.5
editing rate in L. lactis (fold of Redβ with EcSSB) [5]: 5.9
editing rate in L. lactis (fold of Redβ with EcSSB) [6]: 2.6
editing efficiency in C. crescentus (fold over Redβ alone) [2]: 15
editing efficiency in C. crescentus after expression optimization and evasion of mismatch repair (fold higher than Redβ alone) [2]: 112
editing efficiency in C. crescentus after expression optimization and evasion of mismatch repair (fold over the background level) [2]: 873

B1: SEQ ID NO: 157/SEQ ID NO: 384: efficient SSAP/SSB pair co-expressed in E. coli (protein, listed as Clostridium sordellii)
chain 1: MNQIVKFTDDSGLAVQVTPDDVRRYICENATEKEVGLFLQLCQTQRLNPFVKDAYLVKYGGAPASMITSYQVFNRRACRDANYDGIKSGVVVLRDGDVVHKRGAACYKKAGEELIGGWAEVRFKDGRETAYAEVALDDYSTGKSNWAKMPGVMIEKCAKAAAWRLAFPDTFQGMYAAEEMDQAQQPEQVRAQAEQPVDLQPIRELFKPYCEHFGITPAEGMTAVCGAVGAEGMHSMTEQQARRARAWMEEEMAAPAVEAEYEVVDEGEVF
chain 2: MNHVVLVGRLTKDPELRYIPGTGTAVATFTIAIDRDYAKKDGSRETDFIPVEVMGKSAEFCANYISKGRLVALQGSIRVDNYQNQSGERRTFTKVSARNIQALDSNKNRSDSPYPSQNQSFEPSFEPSFEPTGLDPQGFQAIDDDDIPF
modifications: Collinsella stercoris DSM 13279
notes: efficient SSAP/SSB pair co-expressed in E. coli
Editing efficiency, averaged over targeted loci (E. coli [7]): ~100%

B2: codon-optimized version of Redβ: Redβ expressed from the codon-optimized gene included in Broad SSAP Library (protein, UniProt P03698 1-261, looked up)
Recombination protein bet: MSTALATLAGKLAERVGMDSVDPQELITTLRQTAFKGDASDAQFIALLIVANQYGLNPWTKEIYAFPDKQNGIVPVVGVDGWSRIINENQQFDGMDFEQDNESCTCRIYRKDRNHPICVTEWMDECRREPFKTREGREITGPWQSHPKRMLRHKAMIQCARLAFGFAGIYDKDEAERIVENTAYTAERQPERDITPVNDETMQEINTLLIALDKTWDDDLLPLCSQIFRRDIRASSELTQAEAVKALGFLKQKAAEQKVAA
modifications: expressed from codon-optimized gene
notes: Redβ expressed from the codon-optimized gene included in Broad SSAP Library
Effect of codon usage on editing efficiency (E. coli [8]): significantly decreased efficiency

B3: N003: SSAP candidate (protein, listed as Escherichia coli)
chain: MTKQPPIAKADLQKTQGNRAPAAVKNSDVISFINQPSMKEQLAAALPRHMTAERMIRIATTEIRKVPALGNCDTMSFVSAIVQCSQLGLEPGSALGHAYLLPFGNKNEKSGKKNVQLIIGYRGMIDLARRSGQIASLSARVVREGDEFSFEFGLDEKLIHRPGENEDAPVTHVYAVARLKDGGTQFEVMTRKQIELVRSLSKAGNNGPWVTHWEEMAKKTAIRRLFKYLPVSIEIQRAVSMDEKEPLTIDPADSSVLTGEYSVIDNSEE
Editing efficiency (enrichment) relative to other SSAP candidates [9]: increase in editing efficiency

Source: US20220228157A1, “GENE EDITING IN DIVERSE BACTERIA” (priority 2019, published 2022)
